We go through 14 variants from FireProtDB (doi:10.1110/ps.0237703).

B1: A204G, O00095 (parent)
chain: MKFLQVLPALIPAALAQTSCDQWATFTGNGYTVSNNLWGASAGSGFGCVTAVSLSGGASWHADWQWSGGQNNVKSYQNSQIAIPQKRTVNSISSMPTTASWSYSGSNIRANVAYDLFTAANPNHVTYSGDYELMIWLGKYGDIGPIGSSQGTVNVGGQSWTLYYGYNGAMQVYSFVAQTNTTNYSGDVKNFFNYLRDNKGYNAAGQYVLSYQFGTEPFTGSGTLNVASWTASIN

Variants of B1 are the subject of the data set. To be noted: Hypocrea jecorina; pH 8; Thermal; CD; Bis-Tris propane ammonium acetate 0.05 M 0.05 M; reversible: No; structure 1H8V; whole UniProt chain shown.

The term Tm denotes the temperature at which the thermal transition is half complete. Turning to MKFLQVLPALIPAALAQTSCDQWATFTGNGYTVSNNLWGASAGSGFGCVTAVSLSGGASWHADWQWSGGQNNVKSYQNSQIAIPQKRTVNSISSMPTTASWSYSGSNIRANVAYDLFTAANPNHVTYSGDYELMIWLGKYGDIGPIGSSQGTVNVGGQSWTLYYGYNGAMQVYSFVAQTNTTNYSGDVKNFFNYLRDNKGYNAGGQYVLSYQFGTEPFTGSGTLNVASWTASIN [A204G], the Tm worked out at 54.9 °C and the “change of melting temperature, mutant - wild type (higher = more stable)” value (“change of melting temperature, mutant” below) came out at 0.5 °C.

Turning to MKFLQVLPALIPAALAQTSCDQWATFTGNGYTVSNNLWGASAGSGFGCVTAVSLSGGASWHADWQWSGGQNNVKSYQNSQIAIPQKRTVNSISSMPTTASWSYSGSNIRANVAYDLFTAANPNHVTYSGDYELMIWLGKYGDIGPIGSSQGTVNVGGQSWTLYYGYNGAMQVYSFVAQTNTTSYSGDVKNFFNYLRDNKGYNAAGQYVLSYQFGTEPFTGSGTLNVASWTASIN [N183S], the Tm came out at 54.6 °C and the “change of melting temperature, mutant” value was 0.2 °C.

For MKFLQVLPALIPAALAQTSCDQWATFTGNGYTVSNNLWGASAGSGFGCVTAVSLNGGASWHADWQWSGGQNNVKSYQNSQIAIPQKRTVNSISSMPTTASWSYSGSNIRANVAYDLFTAANPNHVTYSGDYELMIWLGKYGDIGPIGSSQGTVNVGGQSWTLYYGYNGAMQVYSFVAQTNTTNYSGDVKNFFNYLRDNKGYNAAGQYVLSYQFGTEPFTGSGTLNVASWTASIN [S55N], the Tm came to 54.9 °C and the “change of melting temperature, mutant” value was 0.5 °C.

Turning to MKFLQVLPALIPAALAQTSCDQWATFTGNGYTVSNNLWGASAGSGFGCVTAVSLSGGASWHADWQWSGGQNNVKSYQNSQIAIPQKRTVNSISSMPTTASWSYSGSNIRANVAYDLFTAANPNHVTYSGDYELMIWLGKYGDIGPIGSSQGTVNVGGQSWTLYYGYNGAMQVYSFVAQSNTTNYSGDVKNFFNYLRDNKGYNAAGQYVLSYQFGTEPFTGSGTLNVASWTASIN [T179S], the Tm was found to be 54.7 °C and the “change of melting temperature, mutant” value stood at 0.3 °C.

Take MKFLQVLPALIPAALAQTSCDQWATFTGNGYTVSNNLWGASAGSGFGCVTAVSLSGAASWHADWQWSGGQNNVKSYQNSQIAIPQKRTVNSISSMPTTASWSYSGSNIRANVAYDLFTAANPNHVTYSGDYELMIWLGKYGDIGPIGSSQGTVNVGGQSWTLYYGYNGAMQVYSFVAQTNTTNYSGDVKNFFNYLRDNKGYNAAGQYVLSYQFGTEPFTGSGTLNVASWTASIN [G57A]: the Tm was found to be 56.9 °C and the “change of melting temperature, mutant” value worked out at 2.5 °C.

With MKFLQVLPALIPAALAQTSCDQWATFTGNGYTVSNNLWGASAGSGFGCVTVVSLSGGASWHADWQWSGGQNNVKSYQNSQIAIPQKRTVNSISSMPTTASWSYSGSNIRANVAYDLFTAANPNHVTYSGDYELMIWLGKYGDIGPIGSSQGTVNVGGQSWTLYYGYNGAMQVYSFVAQTNTTNYSGDVKNFFNYLRDNKGYNAAGQYVLSYQFGTEPFTGSGTLNVASWTASIN [A51V], the Tm came out at 62.1 °C and the “change of melting temperature, mutant” value turned out to be 7.7 °C.

Consider MKFLQVLPALIPAALAQTSCDQWATFTGNGYTVSNNLWGASAGSGFGCVTSVSLSGGASWHADWQWSGGQNNVKSYQNSQIAIPQKRTVNSISSMPTTASWSYSGSNIRANVAYDLFTAANPNHVTYSGDYELMIWLGKYGDIGPIGSSQGTVNVGGQSWTLYYGYNGAMQVYSFVAQTNTTNYSGDVKNFFNYLRDNKGYNAAGQYVLSYQFGTEPFTGSGTLNVASWTASIN [A51S], for which the Tm was 50.4 °C and the “change of melting temperature, mutant” value was -4 °C.

For MKFLQVLPALIPAALAQTSCDQWATFTGNGYTVSNNLWGASAGSGFGCVTAVSLSGGASWHADWQWSGGQNNVKSYQNSQIAIPQKRTVNSISSMPTTASWSYSGSDIRANVAYDLFTAANPNHVTYSGDYELMIWLGKYGDIGPIGSSQGTVNVGGQSWTLYYGYNGAMQVYSFVAQTNTTNYSGDVKNFFNYLRDNKGYNAAGQYVLSYQFGTEPFTGSGTLNVASWTASIN [N107D], the Tm amounted to 54.9 °C and the “change of melting temperature, mutant” value is 0.5 °C.

On to MKFLQVLPALIPAALAQTSCDQWATFTGNGYTVSNNLWGASAGSGFGCVTAVSLSGGASWHADWQWSGGQNNVKSYQNSQIAIPQKRTVNSIGSMPTTASWSYSGSNIRANVAYDLFTAANPNHVTYSGDYELMIWLGKYGDIGPIGSSQGTVNVGGQSWTLYYGYNGAMQVYSFVAQTNTTNYSGDVKNFFNYLRDNKGYNAAGQYVLSYQFGTEPFTGSGTLNVASWTASIN [S93G], for which the Tm amounted to 54.5 °C and the “change of melting temperature, mutant” value amounted to 0.1 °C.

As for MKFLQVLPALIPAALAQTSCDQYATFTGNGYTVSNNLWGASAGSGFGCVTAVSLSGGASWHADWQWSGGQNNVKSYQNSQIAIPQKRTVNSISSMPTTASWSYSGSNIRANVAYDLFTAANPNHVTYSGDYELMIWLGKYGDIGPIGSSQGTVNVGGQSWTLYYGYNGAMQVYSFVAQTNTTNYSGDVKNFFNYLRDNKGYNAAGQYVLSYQFGTEPFTGSGTLNVASWTASIN [W23Y], the Tm worked out at 53.4 °C and the “change of melting temperature, mutant” value is -1 °C.

For MKFLQVLPALIPAALAQTSCDQWATFTGNGYTVSNNLWGASAGSGFGCVTAVSLSGGASWHADWQWSGGQNNVKSYQNSQIAIPQKRTVNSISSMPTTASWSYSGSNIRANVAYDLFTAANPNHVTYSGDYELMIWLGKYGDIGPIGSSQGTVNVGGQTWTLYYGYNGAMQVYSFVAQTNTTNYSGDVKNFFNYLRDNKGYNAAGQYVLSYQFGTEPFTGSGTLNVASWTASIN [S159T], the Tm worked out at 54.9 °C and the “change of melting temperature, mutant” value is 0.5 °C.

As to MKFLQVLPALIPAALAQTSCDQWATFSGNGYIVSNNLWGASAGSGFGCVTAVSLSGGASWHADWQWSGGQNNVKSYQNSQIAIPQKRTVNSISSMPTTASWSYSGSNIRANVAYDLFTAANPNHVTYSGDYELMIWLGKYGDIGPIGSSQGTVNVGGQSWTLYYGYNGAMQVYSFVAQTNTTNYSGDVKNFFNYLRDNKGYNAAGQYVLSYQFGTEPFTGSGTLNVASWTASIN [T27S T32I], the Tm came out at 55.5 °C and the “change of melting temperature, mutant” value is 1.1 °C.

As to MKFLQVLPALIPAALAQTSCDQWATFTGNGYTVSNNLWGASAGSGFGCVTAVSLSGGASWHADWQWSGGQNNVKSYQNVQIAIPQKRTVNSISSMPTTASWSYSGSNIRANVAYDLFTAANPNHVTYSGDYELMIWLGKYGDIGPIGSSQGTVNVGGQSWTLYYGYNGAMQVYSFVAQTNTTNYSGDVKNFFNYLRDNKGYNAAGQYVLSYQFGTEPFTGSGTLNVASWTASIN [S79V], the Tm worked out at 53.6 °C and the “change of melting temperature, mutant” value was -0.8 °C.

For MKFLQVLPALIPAALAQTSCDQWATFTGNGYTVSNNLWGASAGSGFGCVTAVSLSGGASWHADWQWSGGQNNVKSYQNSQINIPQKRTVNSISSMPTTASWSYSGSNIRANVAYDLFTAANPNHVTYSGDYELMIWLGKYGDIGPIGSSQGTVNVGGQSWTLYYGYNGAMQVYSFVAQTNTTNYSGDVKNFFNYLRDNKGYNAAGQYVLSYQFGTEPFTGSGTLNVASWTASIN [A82N], the Tm was found to be 54.5 °C and the “change of melting temperature, mutant” value amounted to 0.1 °C.
